Experimental data from paper PMC7954794, “Protein context shapes the specificity of SH3 domain-mediated interactions in vivo” (Nature Communications, 2021).

B1: YBL071W-A (protein, UniProt Q3E840 1-82, looked up)
Diphthamide biosynthesis …: MSTYDEIEIEDMTFEPENQMFTYPCPCGDRFQIYLDDMFEGEKVAVCPSCSLMIDVVFDKEDLAEYYEEAGIHPPEPIAAAA
B2: YGR178C (protein, UniProt P53297 1-722, looked up)
PAB1-binding protein 1: MKGNFRKRDSSTNSRKGGNSDSNYTNGGVPNQNNSSMFYENPEITRNFDDRQDYLLANSIGSDVTVTVTSGVKYTGLLVSCNLESTNGIDVVLRFPRVADSGVSDSVDDLAKTLGETLLIHGEDVAELELKNIDLSLDEKWENSKAQETTPARTNIEKERVNGESNEVTKFRTDVDISGSGREIKERKLEKWTPEEGAEHFDINKGKALEDDSASWDQFAVNEKKFGVKSTFDEHLYTTKINKDDPNYSKRLQEAERIAKEIESQGTSGNIHIAEDRGIIIDDSGLDEEDLYSGVDRRGDELLAALKSNSKPNSNKGNRYVPPTLRQQPHHMDPAIISSSNSNKNENAVSTDTSTPAAAGAPEGKPPQKTSKNKKSLSSKEAQIEELKKFSEKFKVPYDIPKDMLEVLKRSSSTLKSNSSLPPKPISKTPSAKTVSPTTQISAGKSESRRSGSNISQGQSSTGHTTRSSTSLRRRNHGSFFGAKNPHTNDAKRVLFGKSFNMFIKSKEAHDEKKKGDDASENMEPFFIEKPYFTAPTWLNTIEESYKTFFPDEDTAIQEAQTRFQQRQLNSMGNAVPGMNPAMGMNMGGMMGFPMGGPSASPNPMMNGFAAGSMGMYMPFQPQPMFYHPSMPQMMPVMGSNGAEEGGGNISPHVPAGFMAAGPGAPMGAFGYPGGIPFQGMMGSGPSGMPANGSAMHSHGHSRNYHQTSHHGHHNSSTSGHK
B3: YJL151C (protein, UniProt P14359 1-133, looked up)
Protein SNA3: MDRDHINDHDHRMSYSINKDDLLLMVLAVFIPPVAVWKRKGMFNRDTLLNLLLFLLLFFPAIIHACYVVYETSSERSYDLSRRHATAPAVDRDLEAHPAEESQAQPPAYDEDDEAGADVPLMDNKQQLSSGRT
B4: YLR258W (protein, UniProt P27472 1-705, looked up)
Glycogen [starch] synthase …: MSRDLQNHLLFETATEVANRVGGIYSVLKSKAPITVAQYKDHYHLIGPLNKATYQNEVDILDWKKPEAFSDEMRPVQHALQTMESRGVHFVYGRWLIEGAPKVILFDLDSVRGYSNEWKGDLWSLVGIPSPENDFETNDAILLGYTVAWFLGEVAHLDSQHAIVAHFHEWLAGVALPLCRKRRIDVVTIFTTHATLLGRYLCASGSFDFYNCLESVDVDHEAGRFGIYHRYCIERAAAHSADVFTTVSQITAFEAEHLLKRKPDGILPNGLNVIKFQAFHEFQNLHALKKEKINDFVRGHFHGCFDFDLDNTLYFFIAGRYEYKNKGADMFIEALARLNYRLKVSGSKKTVVAFIVMPAKNNSFTVEALKGQAEVRALENTVHEVTTSIGKRIFDHAIRYPHNGLTTELPTDLGELLKSSDKVMLKRRILALRRPEGQLPPIVTHNMVDDANDLILNKIRQVQLFNSPSDRVKMIFHPEFLNANNPILGLDYDEFVRGCHLGVFPSYYEPWGYTPAECTVMGVPSITTNVSGFGAYMEDLIETNQAKDYGIYIVDRRFKAPDESVEQLVDYMEEFVKKTRRQRINQRNRTERLSDLLDWKRMGLEYVKARQLALRRGYPDQFRELVGEELNDSNMDALAGGKKLKVARPLSVPGSPRDLRSNSTVYMTPGDLGTLQEVNNADDYFSLGVNPAADDDDDGPYADDS
B5: YMR080C (protein, UniProt P30771 1-971, looked up)
ATP-dependent helicase NAM7: MVGSGSHTPYDISNSPSDVNVQPATQLNSTLVEDDDVDNQLFEEAQVTETGFRSPSASDNSCAYCGIDSAKCVIKCNSCKKWFCNTKNGTSSSHIVNHLVLSHHNVVSLHPDSDLGDTVLECYNCGRKNVFLLGFVSAKSEAVVVLLCRIPCAQTKNANWDTDQWQPLIEDRQLLSWVAEQPTEEEKLKARLITPSQISKLEAKWRSNKDATINDIDAPEEQEAIPPLLLRYQDAYEYQRSYGPLIKLEADYDKQLKESQALEHISVSWSLALNNRHLASFTLSTFESNELKVAIGDEMILWYSGMQHPDWEGRGYIVRLPNSFQDTFTLELKPSKTPPPTHLTTGFTAEFIWKGTSYDRMQDALKKFAIDKKSISGYLYYKILGHQVVDISFDVPLPKEFSIPNFAQLNSSQSNAVSHVLQRPLSLIQGPPGTGKTVTSATIVYHLSKIHKDRILVCAPSNVAVDHLAAKLRDLGLKVVRLTAKSREDVESSVSNLALHNLVGRGAKGELKNLLKLKDEVGELSASDTKRFVKLVRKTEAEILNKADVVCCTCVGAGDKRLDTKFRTVLIDESTQASEPECLIPIVKGAKQVILVGDHQQLGPVILERKAADAGLKQSLFERLISLGHVPIRLEVQYRMNPYLSEFPSNMFYEGSLQNGVTIEQRTVPNSKFPWPIRGIPMMFWANYGREEISANGTSFLNRIEAMNCERIITKLFRDGVKPEQIGVITPYEGQRAYILQYMQMNGSLDKDLYIKVEVASVDAFQGREKDYIILSCVRANEQQAIGFLRDPRRLNVGLTRAKYGLVILGNPRSLARNTLWNHLLIHFREKGCLVEGTLDNLQLCTVQLVRPQPRKTERPMNAQFNVESEMGDFPKFQDFDAQSMVSFSGQIGDFGNAFVDNTELSSYINNEYWNFENFKSAFSQKQNRNEIDDRNLYQEEASHLNSNFARELQREEQKHELSKDFSNLGI
B6: YNR007C (protein, UniProt P40344 1-310, looked up)
Autophagy-related protein 3: MIRSTLSSWREYLTPITHKSTFLTTGQITPEEFVQAGDYLCHMFPTWKWNEESSDISYRDFLPKNKQFLIIRKVPCDKRAEQCVEVEGPDVIMKGFAEDGDEDDVLEYIGSETEHVQSTPAGGTKDSSIDDIDELIQDMEIKEEDENDDTEEFNAKGGLAKDMAQERYYDLYIAYSTSYRVPKMYIVGFNSNGSPLSPEQMFEDISADYRTKTATIEKLPFYKNSVLSVSIHPCKHANVMKILLDKVRVVRQRRRKELQEEQELDGVGDWEDLQDDIDDSLRVDQYLIVFLKFITSVTPSIQHDYTMEGW
B7: YOR229W (protein, UniProt Q12206 1-467, looked up)
Transcriptional modulator WTM2: MAKSKSSQGASGARRKPAPSLYQHISSFKPQFSTRVDDVLHFSKTLTWRSEIIPDKSKGTLTTSLLYSQGSDIYEIDTTLPLKTFYDDDDDDDNDDDDEEGNGKTKSAATPNPEYGDAFQDVEGKPLRPKWIYQGETVAKMQYLESSDDSTAIAMSKNGSLAWFRDEIKVPVHIVQEMMGPATRYSSIHSLTRPGSLAVSDFDVSTNMDTVVKSQSNGYEEDSILKIIDNSDRPGDILRTVHVPGTNVAHSVRFFNNHLFASCSDDNILRFWDTRTADKPLWTLSEPKNGRLTSFDSSQVTENLFVTGFSTGVIKLWDARAVQLATTDLTHRQNGEEPIQNEIAKLFHSGGDSVVDILFSQTSATEFVTVGGTGNVYHWDMEYSFSRNDDDNEDEVRVAAPEELQGQCLKFFHTGGTRRSSNQFGKRNTVALHPVINDFVGTVDSDSLVTAYKPFLASDFIGRGYDD
B8: YPL246C (protein, UniProt Q12270 1-262, looked up)
Rhomboid-type serine protease …: MNWKSYVFPGGHPPAALTTGLVVFLTAIYLLSFIFALREDLSLAPESLFKLQMSRLSLYPLIHLSLPHLLFNVLAIWAPLNLFEETHGTVYTGVFLNLSALFAGILYCLLGKLLYPEALVAGASGWCFTLFAYYSFKESQIRPRTRIFRTDYSIPTLYTPLVLLVAIAVVIPGSSFWGHFFGLCVGYAIGYKESWFNKITPPGWIITKIEKSLDGLIRLIPWGIKYYRDEDIDRTKDYEPLMSTETPLPLHNDNSGTVLGTA

test system: ABP1; experiment: DHFR-PCA on solid medium, bait ABP1 (Fig. 1B); assay type: cell-based, Saccharomyces cerevisiae; details: bait ABP1, label = prey; 2-4 replicates
Excerpt: Supplement 41467_2021_21873_MOESM8_ESM.xlsx, sheet "Fig1B" | column: medsize; medrep; Ratio; Score

Row | Molecule | medrep (log2 median colony size normalized to plate background, PCA score)
1 | B1 | 1.99
2 | B2 | 1.414
3 | B3 | 1.425
4 | B4 | 1.989
5 | B5 | 1.542
6 | B6 | 1.566
7 | B7 | 1.855
8 | B8 | 1.384

same assay, conditions: bait ABP1, label = prey; only significant differences showed; PPIs completely lost have a ratio of 0.1 and the gained PPIs 2.5

Row | Molecule | Ratio (SH3-deleted/WT medrep)
9 | B1 | 1.369
10 | B2 | 2.5
11 | B3 | 2.5
12 | B4 | 2.5
13 | B5 | 2.5
14 | B6 | 2.5
15 | B7 | 2.5
16 | B8 | 2.5

test system: Abp1 PPIs; experiment: DHFR-PCA of Abp1 SH3-swapped baits (Fig. 2B-D, S2C, S2F); assay type: cell-based, Saccharomyces cerevisiae; details: Fig2B; bait ABP1, label = prey; Replicates 4
Excerpt: Having determined that multiple PPIs require SH3s, we asked whether the latter establish PPI specificity independently from their host proteins by swapping domains (Fig. 2A). Using the second round of genome editing, we individually replaced Abp1 SH3 with the 27 yeast SH3s and 3 human Abp1 orthologs’ SH3s (CTTN, HCLS1, and DBNL, Fig. 2B). The reintroduction of its own SH3 (Abp1SH3 in Abp1) reconstitutes almost perfectly Abp1’s interaction profile (Kendall’s τ = 0.93, Fig. 2B). […] No homologous SH3 domain fully re-establishes the normal Abp1 PPI profile (Fig. 2B and Supplementary Fig. 2C). However, we observe a significant correlation (cophenetic correlation = 0.20, p value = 0.005, Fig. 2C) between the similarity of PPI profiles (Fig. 2B) and the sequence similarity of the SH3s. […] Nonetheless, a subset of SH3-dependent PPIs is only observed with the endogenous domain. For instance, Hua2 and App1, both well-characterized partners of Abp1[14],[18],[19], are only detected when Abp1 contains its own SH3 (WT or swapped via editing). A given SH3 may therefore not be fully replaceable with other paralogous or orthologous domains. This pattern is confirmed by cellular growth phenotypic analyses (Supplementary Fig. 2D, E). PPIs, SH3 sequence similarity, and growth profiles under stress conditions are correlated (Supplementary Fig. 2D, E). This relationship is particularly clear when analyzing growth on media supplemented with hygromycin.
The stuffing of YSC84 SH3 rendered the strain sterile and was therefore not used for this study as the assays require crosses. For genes containing two SH3s (BZZ1 and BEM1), a combination of this first stuffer with a second one ([…]) coding for a highly similar linker ([…]) was used, which allowed targeting each SH3 position independently. The two N-terminal domains of SLA1, which are separated by six nucleotides, were stuffed by a single stuffer. Cells containing pCAS were selected via the G418 resistance cassette from the plasmid on YPD plates (YPD + NAT 100 μg/ml (DHFR F[1,2] selection) + G418 200 µg/mL (Bioshop Canada)). Colonies were randomly selected and grown in YPD media without G418 to allow plasmid loss. The correct insertion of the stuffer was validated by PCR and Sanger sequencing. The SH3-swapped, -shuffled, and -mutated strains were constructed following a second CRISPR–Cas9 editing step with the same procedures. The stuffer sequences were targeted by specific gRNAs (one gRNA per stuffer) and replaced by PCR amplified specific SH3 (with 40 bp homology arms) or libraries of mutated SH3 domains for Deep Mutational Scanning (DMS) with 78 bp flanking homology regions. Validation of the SH3 domain insertions was done as we previously described except for DMS libraries (see below).
The overall DHFR-PCA pipeline is based on Tarassov et al.[43] and the procedures have also been published as a visualized protocol. The screens were performed with robotically manipulated pin tools (BM5-SC1, S&P Robotics Inc.). First, the preys were cherry-picked from 96-well plates to omnitrays in a 384 format on YPD + HPH solid media. Plates were then combined into the 1536 format on YPD + HPH. The array was constituted of 575 preys previously shown to interact physically with at least one SH3-containing protein as reported in BioGRID V3.4.16 along with 40 negative controls. The prey array comprised a border of control strains of two rows and two columns corresponding to the PPI between LSM8-DHFR F[1,2] and CDC39-DHFR F[3]. This double border was used to remove border effects. Preys are present in duplicate at a randomized position in the 1536 array (except for YAL041W which is present four times per array). Baits were crossed with two prey plates, resulting in four independent bait–prey tests for each PPI. Baits were grown in liquid YPD + NAT and then transferred on solid YPD + NAT omnitrays. They were then replicated on YPD + NAT omnitrays in 1536 array format. […]

Row | Molecule | medrep (log2 median colony size normalized to plate background) | medsize (median colony size)
17 | B1 | 1.454 | 388
